T1: JAMC_Fc (UniProt Q9BX67 32-241, limits assumed)
T1 construct: Construct not described; not shown: Fc tag
T1 sequence (looked up): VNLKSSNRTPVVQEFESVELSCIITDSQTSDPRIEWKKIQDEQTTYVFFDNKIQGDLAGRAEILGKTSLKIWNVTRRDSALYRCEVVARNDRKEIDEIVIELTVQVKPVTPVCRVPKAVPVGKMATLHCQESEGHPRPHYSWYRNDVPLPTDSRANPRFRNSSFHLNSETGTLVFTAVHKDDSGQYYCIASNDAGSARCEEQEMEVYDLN

T2: JAMA-GST (UniProt Q9Y624 28-238, limits assumed)
T2 construct: Construct not described; not shown: GST tag
T2 sequence (looked up): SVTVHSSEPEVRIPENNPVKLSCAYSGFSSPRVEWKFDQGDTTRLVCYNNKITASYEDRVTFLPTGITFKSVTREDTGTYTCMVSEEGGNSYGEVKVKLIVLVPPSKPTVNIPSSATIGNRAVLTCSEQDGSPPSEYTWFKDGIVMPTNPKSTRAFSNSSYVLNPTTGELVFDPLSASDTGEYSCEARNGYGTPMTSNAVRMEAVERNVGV

T3: CLMP-Fc (UniProt Q9H6B4 19-235, limits assumed)
T3 construct: Construct not described; also called CAR-like membrane protein; not shown: Fc tag
T3 sequence (looked up): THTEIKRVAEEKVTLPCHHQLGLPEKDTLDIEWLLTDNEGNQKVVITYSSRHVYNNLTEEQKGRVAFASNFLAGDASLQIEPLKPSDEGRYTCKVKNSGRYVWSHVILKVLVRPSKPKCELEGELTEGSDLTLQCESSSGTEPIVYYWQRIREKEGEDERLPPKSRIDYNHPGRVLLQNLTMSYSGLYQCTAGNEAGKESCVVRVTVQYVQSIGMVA

T4: EVA-His (UniProt O60487 27-154, limits assumed)
T4 construct: Construct not described; also called EVA1; not shown: His tag
T4 sequence (looked up): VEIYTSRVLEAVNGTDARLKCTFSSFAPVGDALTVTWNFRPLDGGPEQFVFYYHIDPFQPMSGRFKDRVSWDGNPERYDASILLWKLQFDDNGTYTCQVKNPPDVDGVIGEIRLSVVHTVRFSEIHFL

T5: JAMA-Fc (UniProt Q9Y624 28-238, limits assumed)
T5 construct: the construct is not described; not shown: Fc tag
T5 sequence (looked up): T2 sequence (looked up)

T6: purified extracellular domain of CAR tagged with GST (CAR-GST) (UniProt P78310 20-237, limits assumed)
T6 construct: extracellular domain; also called soluble CAR; sCAR; not shown: GST tag
T6 sequence (looked up): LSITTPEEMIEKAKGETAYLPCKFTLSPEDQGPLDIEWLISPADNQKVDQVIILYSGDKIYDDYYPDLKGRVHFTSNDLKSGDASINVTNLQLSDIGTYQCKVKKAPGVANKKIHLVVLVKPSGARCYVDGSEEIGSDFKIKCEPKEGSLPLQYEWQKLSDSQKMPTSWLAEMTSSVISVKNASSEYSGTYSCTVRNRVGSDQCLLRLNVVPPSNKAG

T7: JAMA on CHO cells (CHO-JAMA transfectants) (UniProt Q9Y624 28-299, limits assumed)
T7 construct: whole, on cells; Construct not described
T7 sequence (looked up): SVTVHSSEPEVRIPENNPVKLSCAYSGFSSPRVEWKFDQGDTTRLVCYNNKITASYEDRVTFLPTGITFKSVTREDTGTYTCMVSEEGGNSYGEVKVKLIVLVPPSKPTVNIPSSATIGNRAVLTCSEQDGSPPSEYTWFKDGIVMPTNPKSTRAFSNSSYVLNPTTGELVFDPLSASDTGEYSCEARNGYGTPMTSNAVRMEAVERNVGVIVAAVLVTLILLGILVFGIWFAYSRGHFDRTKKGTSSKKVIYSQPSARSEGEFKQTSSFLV

B1: DW216 (antibody, IgG1, V domains shown)
VH: DVQLVESGPGLVKPSQSLSLTCTVTGYSITSDYAWNWIRQFPGNKLEWMGYISSSGNSNYNPSLKSRISITRDTSKNQFFLQLNSVTTEDTATYYCAGATGYSMDYWGQGTTLTVK
VL: VLTQSPAIMSASLGERVTMTCTASSSVSSSYLHWYQQKPGSSPKLWIYSTSNLASGVPARFSGSGSGTSYSLTISSMEAEDAATYYCHQYHRSPFTFGSGTKLELK
notes: also called DW216 mAb; H3L3
B2: DW100 (antibody, IgG1, V domains shown)
VH: DVQLVESGAELVRPGASVKLSCKALAYTFTDYEMHWVKQTPVHGLEWIGIIHPGSGGTVYNQKFKGKATLTADKSSSTAYMELSSLTSEDSTVYYCTRRRYYGSSYWYFDVWGAGN
VL: VLTQSPASLAASVGETVTITCRASENIYYSLAWYQQKQGKSPQLLIYNANSLEDGVPSRFSGSGSGTQYSLKINSMQPEDTATYFCEQTYDVPLTFGAGTKLEL
notes: also called DW100 mAb; anti-JAML monoclonal antibody DW100

Key:
JAMC_Fc = target: T1, JAMC_Fc; assay: ELISA, antigen coated at 5 µg/ml
JAMA-GST = target: T2, JAMA-GST; assay: ELISA, antigen coated at 5 µg/ml
CLMP-Fc = target: T3, CLMP-Fc; assay: ELISA, antigen coated at 5 µg/ml
EVA-His = target: T4, EVA-His; assay: ELISA, antigen coated at 5 µg/ml
BSA = BSA (UniProt P02769 25-607); assay: ELISA, antigen coated at 5 µg/ml
Chain of BSA (P02769 25-607 limits assumed): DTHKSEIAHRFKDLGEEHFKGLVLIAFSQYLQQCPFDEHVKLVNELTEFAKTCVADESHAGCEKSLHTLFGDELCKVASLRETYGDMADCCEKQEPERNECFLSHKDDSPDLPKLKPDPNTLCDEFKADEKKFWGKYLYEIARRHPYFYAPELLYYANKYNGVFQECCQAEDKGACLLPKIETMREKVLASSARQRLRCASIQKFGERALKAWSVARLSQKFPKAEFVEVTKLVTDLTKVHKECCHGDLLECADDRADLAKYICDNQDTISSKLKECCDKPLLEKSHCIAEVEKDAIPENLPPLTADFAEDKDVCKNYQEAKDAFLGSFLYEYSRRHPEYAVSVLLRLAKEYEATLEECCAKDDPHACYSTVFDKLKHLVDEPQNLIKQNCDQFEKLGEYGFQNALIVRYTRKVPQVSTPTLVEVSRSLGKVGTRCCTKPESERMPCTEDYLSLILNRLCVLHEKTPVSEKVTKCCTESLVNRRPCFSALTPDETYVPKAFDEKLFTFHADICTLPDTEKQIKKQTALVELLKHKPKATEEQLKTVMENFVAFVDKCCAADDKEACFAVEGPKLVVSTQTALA

SIRPA-HIS = target: T8, SIRPA-HIS (UniProt P78324 31-370, limits assumed); assay: ELISA, antigen coated at 5 µg/ml
T8 construct: Construct not described; not shown: His tag
T8 sequence (P78324 31-370 limits assumed): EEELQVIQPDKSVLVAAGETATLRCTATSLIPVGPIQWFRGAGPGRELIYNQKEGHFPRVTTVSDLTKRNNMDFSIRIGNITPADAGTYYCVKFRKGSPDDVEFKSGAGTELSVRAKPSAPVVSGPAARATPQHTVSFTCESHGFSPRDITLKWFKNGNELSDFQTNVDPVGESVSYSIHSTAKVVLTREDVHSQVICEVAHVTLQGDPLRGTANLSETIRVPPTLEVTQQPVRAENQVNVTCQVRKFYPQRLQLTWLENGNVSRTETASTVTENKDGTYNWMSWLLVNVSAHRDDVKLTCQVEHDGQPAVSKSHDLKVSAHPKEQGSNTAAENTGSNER

JAMA-Fc = target: T5, JAMA-Fc; assay: ELISA, antigen coated at 5 µg/ml
[1] = target: T6, purified extracellular domain of CAR …; assay: ELISA, antigen coated at 5 µg/ml
[2] = target: T7, JAMA on CHO cells (CHO-JAMA …); assay: staining of CHO-JAMA transfectants

Binder	binding result (JAMC_Fc)	binding result (JAMA-GST)	binding result (CLMP-Fc)	binding result (EVA-His)	binding result (BSA)	binding result (SIRPA-HIS)	binding result (JAMA-Fc)	binding result [1]	binding result [2]
B1	no binding (tested: antibody 10 µg/ml)	no binding (tested: antibody 10 µg/ml)	no binding (tested: antibody 10 µg/ml)	no binding (tested: antibody 10 µg/ml)	no binding (tested: antibody 10 µg/ml)	no binding (tested: antibody 10 µg/ml)	no binding (tested: antibody 10 µg/ml)	no binding (tested: antibody 10 µg/ml)	no binding
B2	no binding (tested: antibody 10 µg/ml)	no binding (tested: antibody 10 µg/ml)	no binding (tested: antibody 10 µg/ml)	no binding (tested: antibody 10 µg/ml)	no binding (tested: antibody 10 µg/ml)	no binding (tested: antibody 10 µg/ml)	no binding (tested: antibody 10 µg/ml)	no binding (tested: antibody 10 µg/ml)	no binding
